Paper PMC5749951, “Mechanistic insights into the active site and allosteric communication pathways in human nonmuscle myosin-2C” (eLife, 2017)

What was measured:
Settings in all cases: both partners purified
[1] = molecular target: T1, filamentous actin (F-actin) (UniProt P68135 1-377); experiment: stopped-flow light scattering; myosin motor domain binding to F-actin in the presence of ADP; salt free stopped-flow buffer
[2] = molecular target: T1, filamentous actin (F-actin); experiment: stopped-flow light scattering + other: stopped-flow pyrene-actin fluorescence; dissociation equilibrium constant calculated as k-DA/k+DA; presence of ADP; salt free stopped-flow buffer
[3] = molecular target: T2, pyrene-labeled filamentous actin (UniProt P68135 1-377, pyrene label); experiment: stopped-flow pyrene-actin fluorescence; dissociation of the myosin motor domain from pyrene-actin in the presence of ADP; salt free stopped-flow buffer
[4] = molecular target: T1, filamentous actin (F-actin); experiment: stopped-flow light scattering + other: stopped-flow pyrene-actin fluorescence; dissociation equilibrium constant calculated as k-A/k+A; absence of nucleotide (rigor); salt free stopped-flow buffer
[5] = molecular target: T1, filamentous actin (F-actin); experiment: stopped-flow light scattering; myosin motor domain binding to F-actin in a stopped-flow system; salt free stopped-flow buffer; samples treated with apyrase prior to the assay (rigor conditions)
[6] = molecular target: T2, pyrene-labeled filamentous actin; experiment: stopped-flow pyrene-actin fluorescence; dissociation of the myosin motor domain from pyrene-actin; salt free stopped-flow buffer; samples treated with apyrase prior to the assay (rigor conditions)

B1: human nonmuscle myosin-2C motor domain (amino acids 1-799) directly fused to spectrin repeats 1 and 2 from Dictyostelium alpha-actinin, C-terminal Flag-tag (domain or fragment)
chain: MAAVTMSVPGRKAPPRPGPVPEAAQPFLFTPRGPSAGGGPGSGTSPQVEWTARRLVWVPSELHGFEAAALRDEGEEEAEVELAESGRRLRLPRDQIQRMNPPKFSKAEDMAELTCLNEASVLHNLRERYYSGLIYTYSGLFCVVINPYKQLPIYTEAIVEMYRGKKRHEVPPHVYAVTEGAYRSMLQDREDQSILCTGESGAGKTENTKKVIQYLAHVASSPKGRKEPGVPGELERQLLQANPILEAFGNAKTVKNDNSSRFGKFIRINFDVAGYIVGANIETYLLEKSRAIRQAKDECSFHIFYQLLGGAGEQLKADLLLEPCSHYRFLTNGPSSSPGQERELFQETLESLRVLGFSHEEIISMLRMVSAVLQFGNIALKRERNTDQATMPDNTAAQKLCRLLGLGVTDFSRALLTPRIKVGRDYVQKAQTKEQADFALEALAKATYERLFRWLVLRLNRALDRSPRQGASFLGILDIAGFEIFQLNSFEQLCINYTNEKLQQLFNHTMFVLEQEEYQREGIPWTFLDFGLDLQPCIDLIERPANPPGLLALLDEECWFPKATDKSFVEKVAQEQGGHPKFQRPRHLRDQADFSVLHYAGKVDYKANEWLMKNMDPLNDNVAALLHQSTDRLTAEIWKDVEGIVGLEQVSSLGDGPPGGRPRRGMFRTVGQLYKESLSRLMATLSNTNPSFVRCIVPNHEKRAGKLEPRLVLDQLRCNGVLEGIRICRQGFPNRILFQEFRQRYEILTPNAIPKGFMDGKQACEKMIQALELDPNLYRVGQSKIFFRAGVLAQLEEEREQTKSDYLKRANELVQWINDKQASLESRDFGDSIESVQSFMNAHKEYKKTEKPPKGQEVSELEAIYNSLQTKLRLIKREPFVAPAGLTPNEIDSTWSALEKAEQEHAEALRIELKRQKKIAVLLQKYNRILKKLENWATTKSVYLGSNETGDSITAVQAKLKNLEAFDGECQSLEGQSNSDLLSILAQLTELNYNGVPELTERKDTFFAQQWTGVKSSAETYKNT
notes: nonmuscle myosin-2C heavy chain (gene product of MYH14), human, motor domain, amino acids 1-799; alpha-actinin, Dictyostelium discoideum, spectrin repeats 1 and 2, used as artificial lever arm; Monomeric motor domain construct; also called NM2C; Hs NM2C; source: Sf9/baculovirus system, purified to electrophoretic homogeneity
kon [1]: 530000 ± 10000 M⁻¹ s⁻¹ | Kd [2]: ~8 nM | koff [3]: ~0.004 s⁻¹ | Kd [4]: ~60 nM | kon [5]: 2.49e+06 ± 70000 M⁻¹ s⁻¹ | koff [6]: ~0.15 s⁻¹

B2: human nonmuscle myosin-2C motor domain (amino acids 1-799) R788K fused to spectrin repeats 1 and 2 from Dictyostelium alpha-actinin, C-terminal Flag-tag (domain or fragment)
chain: MAAVTMSVPGRKAPPRPGPVPEAAQPFLFTPRGPSAGGGPGSGTSPQVEWTARRLVWVPSELHGFEAAALRDEGEEEAEVELAESGRRLRLPRDQIQRMNPPKFSKAEDMAELTCLNEASVLHNLRERYYSGLIYTYSGLFCVVINPYKQLPIYTEAIVEMYRGKKRHEVPPHVYAVTEGAYRSMLQDREDQSILCTGESGAGKTENTKKVIQYLAHVASSPKGRKEPGVPGELERQLLQANPILEAFGNAKTVKNDNSSRFGKFIRINFDVAGYIVGANIETYLLEKSRAIRQAKDECSFHIFYQLLGGAGEQLKADLLLEPCSHYRFLTNGPSSSPGQERELFQETLESLRVLGFSHEEIISMLRMVSAVLQFGNIALKRERNTDQATMPDNTAAQKLCRLLGLGVTDFSRALLTPRIKVGRDYVQKAQTKEQADFALEALAKATYERLFRWLVLRLNRALDRSPRQGASFLGILDIAGFEIFQLNSFEQLCINYTNEKLQQLFNHTMFVLEQEEYQREGIPWTFLDFGLDLQPCIDLIERPANPPGLLALLDEECWFPKATDKSFVEKVAQEQGGHPKFQRPRHLRDQADFSVLHYAGKVDYKANEWLMKNMDPLNDNVAALLHQSTDRLTAEIWKDVEGIVGLEQVSSLGDGPPGGRPRRGMFRTVGQLYKESLSRLMATLSNTNPSFVRCIVPNHEKRAGKLEPRLVLDQLRCNGVLEGIRICRQGFPNRILFQEFRQRYEILTPNAIPKGFMDGKQACEKMIQALELDPNLYRVGQSKIFFKAGVLAQLEEEREQTKSDYLKRANELVQWINDKQASLESRDFGDSIESVQSFMNAHKEYKKTEKPPKGQEVSELEAIYNSLQTKLRLIKREPFVAPAGLTPNEIDSTWSALEKAEQEHAEALRIELKRQKKIAVLLQKYNRILKKLENWATTKSVYLGSNETGDSITAVQAKLKNLEAFDGECQSLEGQSNSDLLSILAQLTELNYNGVPELTERKDTFFAQQWTGVKSSAETYKNT
notes: nonmuscle myosin-2C heavy chain (gene product of MYH14), human, motor domain, amino acids 1-799, with R788K; alpha-actinin, Dictyostelium discoideum, spectrin repeats 1 and 2, used as artificial lever arm; Point mutant made by people on the fusion construct m1; also called Hs R788K; R788K (kinetic studies); source: Sf9/baculovirus system, purified to electrophoretic homogeneity
kon [1]: 2.53e+06 ± 50000 M⁻¹ s⁻¹ | Kd [2]: 26 to 43 nM | koff [3]: 0.067 to 0.11 s⁻¹ | Kd [4]: 24 to 42 nM | kon [5]: 1.65e+06 ± 30000 M⁻¹ s⁻¹ | koff [6]: 0.04 to 0.07 s⁻¹

B3: human nonmuscle myosin-2C motor domain (amino acids 1-799) R788E fused to spectrin repeats 1 and 2 from Dictyostelium alpha-actinin, C-terminal Flag-tag (domain or fragment)
chain: MAAVTMSVPGRKAPPRPGPVPEAAQPFLFTPRGPSAGGGPGSGTSPQVEWTARRLVWVPSELHGFEAAALRDEGEEEAEVELAESGRRLRLPRDQIQRMNPPKFSKAEDMAELTCLNEASVLHNLRERYYSGLIYTYSGLFCVVINPYKQLPIYTEAIVEMYRGKKRHEVPPHVYAVTEGAYRSMLQDREDQSILCTGESGAGKTENTKKVIQYLAHVASSPKGRKEPGVPGELERQLLQANPILEAFGNAKTVKNDNSSRFGKFIRINFDVAGYIVGANIETYLLEKSRAIRQAKDECSFHIFYQLLGGAGEQLKADLLLEPCSHYRFLTNGPSSSPGQERELFQETLESLRVLGFSHEEIISMLRMVSAVLQFGNIALKRERNTDQATMPDNTAAQKLCRLLGLGVTDFSRALLTPRIKVGRDYVQKAQTKEQADFALEALAKATYERLFRWLVLRLNRALDRSPRQGASFLGILDIAGFEIFQLNSFEQLCINYTNEKLQQLFNHTMFVLEQEEYQREGIPWTFLDFGLDLQPCIDLIERPANPPGLLALLDEECWFPKATDKSFVEKVAQEQGGHPKFQRPRHLRDQADFSVLHYAGKVDYKANEWLMKNMDPLNDNVAALLHQSTDRLTAEIWKDVEGIVGLEQVSSLGDGPPGGRPRRGMFRTVGQLYKESLSRLMATLSNTNPSFVRCIVPNHEKRAGKLEPRLVLDQLRCNGVLEGIRICRQGFPNRILFQEFRQRYEILTPNAIPKGFMDGKQACEKMIQALELDPNLYRVGQSKIFFEAGVLAQLEEEREQTKSDYLKRANELVQWINDKQASLESRDFGDSIESVQSFMNAHKEYKKTEKPPKGQEVSELEAIYNSLQTKLRLIKREPFVAPAGLTPNEIDSTWSALEKAEQEHAEALRIELKRQKKIAVLLQKYNRILKKLENWATTKSVYLGSNETGDSITAVQAKLKNLEAFDGECQSLEGQSNSDLLSILAQLTELNYNGVPELTERKDTFFAQQWTGVKSSAETYKNT
notes: nonmuscle myosin-2C heavy chain (gene product of MYH14), human, motor domain, amino acids 1-799, with R788E; alpha-actinin, Dictyostelium discoideum, spectrin repeats 1 and 2, used as artificial lever arm; Point mutant made by people on the fusion construct m1; also called Hs R788E; R788E (kinetic studies); source: Sf9/baculovirus system, purified to electrophoretic homogeneity
kon [1]: 210000 ± 10000 M⁻¹ s⁻¹ | Kd [2]: ~9 nM | koff [3]: ~0.002 s⁻¹ | Kd [4]: ~47 nM | kon [5]: 660000 ± 30000 M⁻¹ s⁻¹ | koff [6]: ~0.031 s⁻¹
